No end group written: not given here. Me3 = tri-methyl on lysine side chain
Tests used:
[1] = target: tandem tudor domain (TTD) of UHRF1; assay: AlphaScreen or HTRF
[2] = target: tandem tudor domain (TTD) of UHRF1; assay: fluorescence polarisation

Binder: ARTKQTARKSTGEW (here or on the partner: trimethyl-lysine at K9) [H3K9me3 competition peptide (high affinity competitor)]
- IC50 [1]: 6 µM
- IC50 [2]: 12 µM

Binder: ARTK(Me3)QTARKSTGEW [H3K4me3 competition peptide (low affinity competitor)]
- IC50 [1]: 95 µM

— article PMC4467374
